In US20240307885:

Biological target: Insulin from bovine pancreas, P01317
Sequence (P01317 85-105, chain 1 of 2): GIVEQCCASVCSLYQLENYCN
Sequence (P01317 25-54, chain 2 of 2): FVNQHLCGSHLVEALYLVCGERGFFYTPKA

B1: Protein disulfide isomerase from Thermoascus crustaceus (SEQ ID NO: 1) (protein)
chain: ADAESDVRSLKKDTFDDFIKEHDLVLAEFFAPWCGHCQALAPEYEAAASELKEKNIPLAKVDCTEEADLCKEHGVEGYPTLKVFRGLDSVKPYPGARKSAAIVSYMVKQSLPAVSTVTKENLEEFKTMDKVVIIGYIAPDDKTSNETFTAFADSKRDDYLFAATNDAALAKAEGVKQPSIVLYKDFDEKKDVFDGKFDQETMLSWVKTASTPLVGEIGPETYAGYMSAGIPLAFIFAETPEERQKLAADFKPIAEKHRGAINIVTIDAKAFGAYAGNLNLDPQKFPCFAIHDTVKNAKFPYDQSKEVNAKDIGQFVQEVLDGKVEPSIKSEPIPETQEGSVTVVVAHSYRELVIDNDKDVLLEFYAPWCGHCKALAPKYEELGRLYAENPDLASKVTVAKIDATANDVPDEIQGFPTIKLFPAGAKDSPVDYAGSRTVEDLANFIKENGKHKVDALSAATAKPEQGGDVTSTPSISSETTAETAAPTTDGSEHDEL
- Insulin reduction assay with DTT, MALDI MS (worded result): in the presence of the PDI, a significant amount of the cystines are reduced resulting in separation of the insulin into the A peptide and B peptide
- Insulin reduction assay with sulfite, MALDI MS (worded result): in the presence of the PDI, a significant amount of the cystines are reduced resulting in separation of the insulin into the A peptide and B peptide
- Ratio (A chain): mass peak area of A peptide chain to intact insulin, MALDI MS; 2.5 µg/mL PDI, 0 mM DTT: 0.006
- Ratio (A chain): mass peak area of A peptide chain to intact insulin, MALDI MS; 2.5 µg/mL PDI, 0 mM sulfite: 0.009
- Ratio (A chain): mass peak area of A peptide chain to intact insulin, MALDI MS; 2.5 µg/mL PDI, 2 mM DTT: 0.035
- Ratio (A chain): mass peak area of A peptide chain to intact insulin, MALDI MS; 2.5 µg/mL PDI, 2.9 mM sulfite: 0.027
- Ratio (A chain): mass peak area of A peptide chain to intact insulin, MALDI MS; 5 µg/mL PDI, 0 mM DTT: 0.005
- Ratio (A chain): mass peak area of A peptide chain to intact insulin, MALDI MS; 5 µg/mL PDI, 0 mM sulfite: 0.007
- Ratio (A chain): mass peak area of A peptide chain to intact insulin, MALDI MS; 5 µg/mL PDI, 2 mM DTT: 0.07
- Ratio (A chain): mass peak area of A peptide chain to intact insulin, MALDI MS; 5 µg/mL PDI, 2.9 mM sulfite: 0.05
- Ratio (A chain): mass peak area of A peptide chain to intact insulin, MALDI MS; 10 µg/mL PDI, 0 mM DTT: 0.003
- Ratio (A chain): mass peak area of A peptide chain to intact insulin, MALDI MS; 10 µg/mL PDI, 0 mM sulfite: 0.008
- Ratio (A chain): mass peak area of A peptide chain to intact insulin, MALDI MS; 10 µg/mL PDI, 2 mM DTT: 0.172
- Ratio (A chain): mass peak area of A peptide chain to intact insulin, MALDI MS; 10 µg/mL PDI, 2.9 mM sulfite: 0.104
- Ratio (B chain): mass peak area of B peptide chain to intact insulin, MALDI MS; 2.5 µg/mL PDI, 0 mM DTT: 0.01
- Ratio (B chain): mass peak area of B peptide chain to intact insulin, MALDI MS; 2.5 µg/mL PDI, 0 mM sulfite: 0.019
- Ratio (B chain): mass peak area of B peptide chain to intact insulin, MALDI MS; 2.5 µg/mL PDI, 2 mM DTT: 0.109
- Ratio (B chain): mass peak area of B peptide chain to intact insulin, MALDI MS; 2.5 µg/mL PDI, 2.9 mM sulfite: 0.055
- Ratio (B chain): mass peak area of B peptide chain to intact insulin, MALDI MS; 5 µg/mL PDI, 0 mM DTT: 0.009
- Ratio (B chain): mass peak area of B peptide chain to intact insulin, MALDI MS; 5 µg/mL PDI, 0 mM sulfite: 0.018
- Ratio (B chain): mass peak area of B peptide chain to intact insulin, MALDI MS; 5 µg/mL PDI, 2 mM DTT: 0.185
- Ratio (B chain): mass peak area of B peptide chain to intact insulin, MALDI MS; 5 µg/mL PDI, 2.9 mM sulfite: 0.083
- Ratio (B chain): mass peak area of B peptide chain to intact insulin, MALDI MS; 10 µg/mL PDI, 0 mM DTT: 0.007
- Ratio (B chain): mass peak area of B peptide chain to intact insulin, MALDI MS; 10 µg/mL PDI, 0 mM sulfite: 0.017
- Ratio (B chain): mass peak area of B peptide chain to intact insulin, MALDI MS; 10 µg/mL PDI, 2 mM DTT: 0.335
- Ratio (B chain): mass peak area of B peptide chain to intact insulin, MALDI MS; 10 µg/mL PDI, 2.9 mM sulfite: 0.17
